Data: patent publication US10358638B2, “Method of producing 1,5-pentadiamine using lysine decarboxylase mutant having improved thermal stability” (AJINOMOTO CO., INC., priority 2014, dated 2019)

Columns and labels:
[1] = Enzyme activity of culture media of expressing strains after heat treatment with or without disruption; format: cell-based, Escherichia coli
Description: (§1) The activity of the lysine decarboxylase was measured according to the method described in JP patent application laid-open Publication No. 2008-193899. 0.1 mL of a microbial cell suspension or a treated product thereof was added to 1 mL of a reaction solution containing 100 mM MES-NaOH buffer (pH 6.0), 10 g/L (55 mM) of L-lysine hydrochloride and 26.5 mg/L (0.1 mM) of PLP, and then the reaction mixture was incubated at 37° C. for 5 minutes. 0.1 mL of the reaction solution was collected and added to 1 mL of 1% (v/v) phosphoric acid to stop the reaction. Lysine and 1,5-PD were quantified with HPLC by a post column OPA method (S. R. Vale and M. B. Gloria, Journal Of AOAC International (1997) vol. 80, p. 1006-1012) or a method of quantifying remaining L-lysine using a biosensor BF-5 (Oji Scientific Instruments Co., Ltd.). One unit was defined as an activity that formed 1 μmol of 1,5-PD in one minute under this condition.
Microbial cells of E. coli JM109/pCadA220 and E. coli JM109/pCadA234 carrying the wild-type CadA and the double mutant CadA, respectively were cultured in the LB medium. Subsequently, 15 mL of the cultured medium was inoculated into 300 mL of culture medium (25 g/L of glucose, 5 g/L of ammonium sulfate, 2 g/L of potassium phosphate, 1 g/L of magnesium sulfate heptahydrate, 20 mg/L of iron sulfate heptahydrate, 20 mg/L of manganese sulfate pentahydrate, 1 mg/L of thiamine hydrochloride, 0.45 g/L of hydrolyzed soybeans, pH 7.0) in a 500 mL jar fermenter (manufactured by ABLE & Biott Co., Ltd.), and cultured with ventilation at 300 mL/minute while stirring at 250 rpm at 30° C. for 12 hours. Culture media containing 10.1 g/L and 10.9 g/L of microbial cells in terms of dry microbial cell weight were able to be prepared for E. coli JM109/pCadA220 and E. coli JM109/pCadA234, respectively. For the purpose of improving substrate permeability, the pH value was adjusted to 5.5, and subsequently the culture media were incubated at 55° C. and 60° C., and then the culture media were directly used to measure the activity after the incubation.
Since the lysine decarboxylase is expressed within the microbial cell, when the microbial cell is used directly, lysine cannot react with the lysine decarboxylase, and the efficiency of a decarboxylation reaction is very poor. […] However, the wild-type enzyme was inactivated during the incubation when heated excessively. The mutated enzyme having the improved thermal stability could stably keep its activity even when using conditions where the wild-type enzyme was easily inactivated as shown in Example 2. When the microbial cells carrying such a mutated enzyme were used, efficient treatment in a short period of time was possible. This has shown that the mutated enzyme not only can act at higher temperature upon reaction but also can be easily used when the microbial cell is directly used.

[2] = Remaining lysine decarboxylase activity of cell free extract after incubation at 68° C.; format: biochemical, Escherichia coli
Description: as §1
A combination mutant for increasing the amount of expressed CadA was constructed using QuikChange™ Site-Directed Mutagenesis Kit (Stratagene). A mutation to alter from Val (GTT) to Ile ([…]) at position 3 was introduced using the plasmid pCadA233 as the template and using oligonucleotides v3i_r (5′-cat gtg att caa tat tgc aat aat gtt cat cta cat tcc tcc tta cg-3′(SEQ ID NO:11)) and v3i_f (5′-cgt aag gag gaa tgt aga tga aca tta ttg caa tat tga atc aca tg-3′ (SEQ ID NO:12)) as primers according to a protocol. The nucleotide sequence of the constructed plasmid was determined by the method described in Example 2 to confirm that the objective mutation had been introduced, and this plasmid was designated as pCadA234. Microbial cells of E. coli JM109/pCadA234 expressing this double mutant CadA234 at high level were cultured to prepare a cell free extract in the same manner as in Example 2. The activity in this cell free extract was 663 U/mL, which was almost the same as that from the strain expressing the wild-type enzyme.
The resulting cell free extract was diluted to 20 fold with 0.1 M MES-NaOH buffer (pH 6.0). Each crude enzyme solution was incubated at 68° C., which is a higher temperature than in Example 2, and the remaining activity was measured over time. After incubation at 68° C. for one hour, the wild-type enzyme was inactivated to 27% while the single mutant enzymes V3I and A590T were inactivated to 47% and 27%, respectively. On the contrary, the double mutant enzyme retained 70% of its activity, and even after 3 hours, still retained about 60% of its activity (FIG. 1). Therefore, it was shown that the double mutation has a synergistic effect and further improved the thermal stability.

[3] = Lysine decarboxylation reaction (1,5-PD production) in the presence of chelating agent; set-up: species or system Escherichia coli; details: 0.1 mM iron sulfate, 0.3 mM EDTA added, 37° C., 16 hours
Description: In the same manner as in Example 4, microbial cells of E. coli JM109/pCadA234 (double mutant expressing CadA at high level) were cultured, the cultured medium was prepared, and after completing the cultivation, incubated at 60° C. for one hour. The activity after incubation was measured, and the cultured medium was diluted so that the enzyme activity became 380 units/mL. 30 mL of this cultured medium containing the enzyme was added to 270 mL of a reaction solution containing 250 g/L of lysine hydrochloride (Ajinomoto Co., Ltd.), 26.5 mg/L of pyridoxal phosphate, 27.8 mg/L (0.1 mM) of iron sulfate heptahydrate and 111.6 mg/L (0.3 mM) of disodium dihydrogen ethylenediaminetetraacetate (EDTA), and the mixture was reacted at 37° C. for 16 hours. No EDTA was added in a control reaction. The pH value was 5.3 when the reaction was started, and elevated with progress of the reaction, but was kept at 7.0 by adding 30% (v/v) sulfuric acid when the pH value reached 7.0.
On the other hand, when EDTA was added, the inhibition of the reaction is restored and lysine was completely consumed. When EDTA was added, 135 g/L of 1,5-PD was formed and lysine was converted at a yield of 98%. […]

[4] = Inhibition of enzyme activity by iron ion and effect of chelating agent EDTA; format: biochemical, Escherichia coli
Description: as §1
Cell free extracts were prepared from the strain expressing wild-type CadA and the strain overexpressing double mutant CadA, respectively in the same manner as in Examples 2 and 3. Using the resulting cell free extract, iron sulfate heptahydrate (Nacalai Tesque Inc.) at a final concentration of […] (2 mM) was added to the composition shown in Example 1, and an inhibitory effect was measured. […]

[5] = Incubation at 55° C. for 1 h, Disruption
[6] = Incubation at 55° C. for 1 h, physical treatment None
[7] = Incubation at 55° C. for 3 h, Disruption
[8] = Incubation at 55° C. for 3 h, physical treatment None
[9] = Incubation at 60° C. for 1 h, Disruption
[10] = Incubation at 60° C. for 1 h, physical treatment None
[11] = No heat treatment, physical treatment None

B1: pCadA234: lysine decarboxylase (CadA) V3I/A590T double mutant (protein, UniProt P0A9H3 1-715, looked up, variant V3I A590T)
Inducible lysine decarboxylase: MNIIAILNHMGVYFKEEPIRELHRALERLNFQIVYPNDRDDLLKLIENNARLCGVIFDWDKYNLELCEEISKMNENLPLYAFANTYSTLDVSLNDLRLQISFFEYALGAAEDIANKIKQTTDEYINTILPPLTKALFKYVREGKYTFCTPGHMGGTAFQKSPVGSLFYDFFGPNTMKSDISISVSELGSLLDHSGPHKEAEQYIARVFNADRSYMVTNGTSTANKIVGMYSAPAGSTILIDRNCHKSLTHLMMMSDVTPIYFRPTRNAYGILGGIPQSEFQHATIAKRVKETPNATWPVHAVITNSTYDGLLYNTDFIKKTLDVKSIHFDSAWVPYTNFSPIYEGKCGMSGGRVEGKVIYETQSTHKLLAAFSQASMIHVKGDVNEETFNEAYMMHTTTSPHYGIVASTETAAAMMKGNAGKRLINGSIERAIKFRKEIKRLRTESDGWFFDVWQPDHIDTTECWPLRSDSTWHGFKNIDNEHMYLDPIKVTLLTPGMEKDGTMSDFGIPASIVAKYLDEHGIVVEKTGPYNLLFLFSIGIDKTKALSLLRALTDFKRAFDLNLRVKNMLPSLYREDPEFYENMRIQELTQNIHKLIVHHNLPDLMYRAFEVLPTMVMTPYAAFQKELHGMTEEVYLDEMVGRINANMILPYPPGVPLVMPGEMITEESRPVLEFLQMLCEIGAHYPGFETDIHGAYRQADGRYTVKVLKEESKK
In the case of B1, the Enzyme activity [1, 5] is reported as 758 units/ml, the Relative activity [1, 5] is reported as 98.4% and the Enzyme activity [1, 6] is reported as 475 units/ml. The Relative activity [1, 6] was 61.7%, the Enzyme activity [1, 7] was 659 units/ml and the Relative activity [1, 7] was 85.5%. It also gave an Enzyme activity [1, 8] of 601 units/ml, a Relative activity [1, 8] of 78.0% and an Enzyme activity [1, 9] of 754 units/ml. For the same molecule, the Relative activity [1, 9] was 97.9%, the Enzyme activity [1, 10] was 426 units/ml and the Relative activity [1, 10] was 55.3%. It also gave an Enzyme activity ([1]; No heat treatment, Disruption) of 770 units/ml, a Relative activity ([1]; No heat treatment, Disruption) of 100% and an Enzyme activity [1, 11] of 16.0 units/ml. For the same molecule, the Relative activity [1, 11] was 2.1%, the “remaining activity after incubation at 68° C. for one hour” value ([2]; 68° C., 1 hour, FIG. 1) was 70% and the “remaining activity after incubation at 68° C. for 3 hours” value ([2]; 68° C., 3 hours, FIG. 1) was “about 60%”. The “activity in cell free extract” value ([2]; before incubation) was 663 U/mL, the “yield of lysine conversion” value [3] was 98% and the “activity with 2 mM iron ion, of the activity when no iron ion was added” value ([4]; 2 mM iron ion, no EDTA) was 64.7%. The Enzyme activity ([4]; FeSO4 2 mM, EDTA 0.5 mM) was 677 units/ml, the Enzyme activity ([4]; FeSO4 2 mM, EDTA 1 mM) was 680 units/ml and the Enzyme activity ([4]; FeSO4 2 mM, EDTA 2 mM) was 677 units/ml. The Enzyme activity ([4]; FeSO4 2 mM, EDTA 4 mM) was 672 units/ml, the Enzyme activity ([4]; FeSO4 2 mM, EDTA 5 mM) was 669 units/ml and the Enzyme activity ([4]; FeSO4 2 mM, EDTA None) was 443 units/ml. It also gave an Enzyme activity ([4]; FeSO4 None, EDTA 2 mM) of 677 units/ml and an Enzyme activity ([4]; FeSO4 None, EDTA None) of 685 units/ml.
